Data taken from patent publication US20240101695A1 (University of California, published 2024).

T1: human CD138 (human, UniProt P18827 23-310)
T1 construct: whole, on cells; Endogenous antigen on MM.1S, MDA-MB-468 and SK-BR-3 cells; also called syndecan-1
T1 sequence (looked up): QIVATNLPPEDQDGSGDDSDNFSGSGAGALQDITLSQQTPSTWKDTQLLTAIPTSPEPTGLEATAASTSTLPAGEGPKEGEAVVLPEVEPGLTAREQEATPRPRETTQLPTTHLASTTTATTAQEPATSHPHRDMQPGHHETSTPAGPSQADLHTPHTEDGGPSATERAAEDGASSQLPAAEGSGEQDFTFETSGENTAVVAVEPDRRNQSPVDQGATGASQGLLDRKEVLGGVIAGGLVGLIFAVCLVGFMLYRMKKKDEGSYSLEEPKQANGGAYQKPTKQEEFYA

T2: human FcεRI (human, UniProt P12319 26-257)
T2 construct: whole, on cells; Multi-subunit receptor; In the PCA assay it is the humanized FcεRI of transgenic huFcεRI mice; also called huFcεRI
T2 sequence (looked up): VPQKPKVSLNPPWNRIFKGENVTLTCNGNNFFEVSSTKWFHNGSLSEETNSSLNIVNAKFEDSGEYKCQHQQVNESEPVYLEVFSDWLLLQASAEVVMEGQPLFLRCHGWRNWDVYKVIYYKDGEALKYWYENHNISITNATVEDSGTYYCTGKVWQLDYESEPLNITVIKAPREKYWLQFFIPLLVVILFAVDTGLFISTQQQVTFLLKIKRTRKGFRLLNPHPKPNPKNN


Assays:
human CD138 = molecular target: T1, human CD138; test: flow cytometry on MDA-MB-468 and SK-BR-3 cells expressing CD138
Description: Human triple negative breast cancer (TNBC) cells (MDA-MB-468) and human HER2/neu positive breast cancer cells (SK-BR-3) expressing CD138 were incubated with either IgE isotype control (non-targeting control) or anti-CD138 IgE. Antibody binding was detected using a PE-conjugated goat F(ab′)₂ anti-human κ antibody. Grey filled histograms represent cells incubated with secondary antibody only (“no antibody”). Empty black line histograms represent cells incubated with primary antibodies (IgE isotype control or anti-CD138 IgE).
(§1) Antigen binding of the anti-CD38 IgE, anti-CD138 IgE, and anti-TfR1 IgE antibodies was studied by flow cytometry using the human multiple myeloma (MM) cell line MM.1S purchased from the American Type Culture Collection (ATCC, Manassas, VA, USA; ATCC® CRL-2974™). […] Binding to FcεRI was also assessed by flow cytometry using the rat basophilic leukemia cell line RBL SX-38 expressing human FcεRI¹¹³ kindly provided by Dr. Jean-Pierre Kinet (Beth Israel Deaconess Medical Center, Boston, MA, USA). […] Samples were analyzed on a BD LSRII analytical flow cytometer (BD Biosciences, San Jose, CA, USA) and 10,000 events were collected. […]

human FcεRI = molecular target: T2, human FcεRI; test: flow cytometry on RBL SX-38 cells expressing human FcεRI
Description: Human MM cells (MM.1S) expressing CD138 were incubated with either IgE isotype control (non-targeting control), anti-CD138 IgG1, or anti-CD138 IgE. The rat basophilic leukemia cells RBL SX-38 expressing human FcεRI were incubated with either IgE isotype control, anti-CD138 IgG1, or anti-CD138 IgE. Antibody binding was detected using a PE-conjugated goat F(ab′)₂ anti-human κ antibody. Grey line histograms represent cells incubated with secondary antibody only (“no antibody”). Black line histograms represent cells incubated with primary antibodies (IgE isotype control, anti-CD138 IgG1, or anti-CD138 IgE).
Human MM cells (MM.1S) expressing TfR1 were incubated with either IgE isotype control (non-targeting control) or anti-TfR1 IgE. […] Antibody binding was detected using a PE-conjugated mouse IgG1 anti-human IgE antibody. […]
Antigen binding of the anti-CD38 IgE, anti-CD138 IgE, and anti-TfR1 IgE antibodies was studied by flow cytometry using the human multiple myeloma (MM) cell line MM.1S purchased from the American Type Culture Collection (ATCC, Manassas, VA, USA; ATCC® CRL-2974™). […] Binding to FcεRI was also assessed by flow cytometry using the rat basophilic leukemia cell line RBL SX-38 expressing human FcεRI¹¹³ kindly provided by Dr. Jean-Pierre Kinet (Beth Israel Deaconess Medical Center, Boston, MA, USA). […]

[1] = molecular target: T3, human transferrin receptor 1 (TfR1) (human, UniProt P02786 1-760); test: flow cytometry on MM.1S cells expressing TfR1
T3 construct: whole, on cells; Endogenous antigen on MM.1S cells; also called transferrin receptor protein 1; CD71
T3 sequence (P02786 whole entry): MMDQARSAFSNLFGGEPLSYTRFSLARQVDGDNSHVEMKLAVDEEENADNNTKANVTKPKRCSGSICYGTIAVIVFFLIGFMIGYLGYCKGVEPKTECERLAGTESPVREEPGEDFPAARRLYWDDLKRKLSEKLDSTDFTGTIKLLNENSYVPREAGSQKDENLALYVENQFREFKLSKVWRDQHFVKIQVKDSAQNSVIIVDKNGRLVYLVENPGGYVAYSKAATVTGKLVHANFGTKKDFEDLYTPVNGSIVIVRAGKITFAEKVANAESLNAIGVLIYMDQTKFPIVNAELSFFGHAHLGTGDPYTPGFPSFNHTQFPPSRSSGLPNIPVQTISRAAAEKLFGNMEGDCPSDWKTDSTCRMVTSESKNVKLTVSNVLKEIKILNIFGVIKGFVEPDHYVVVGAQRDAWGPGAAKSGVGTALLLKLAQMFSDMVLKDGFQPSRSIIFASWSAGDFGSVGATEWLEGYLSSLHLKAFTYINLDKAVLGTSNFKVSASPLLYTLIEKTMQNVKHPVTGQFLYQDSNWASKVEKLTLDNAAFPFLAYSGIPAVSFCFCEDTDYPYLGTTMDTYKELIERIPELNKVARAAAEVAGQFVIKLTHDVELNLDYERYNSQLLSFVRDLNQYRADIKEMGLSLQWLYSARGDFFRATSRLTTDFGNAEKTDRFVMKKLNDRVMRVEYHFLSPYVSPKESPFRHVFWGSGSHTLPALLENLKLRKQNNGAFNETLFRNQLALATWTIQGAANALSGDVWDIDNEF
Description: Human MM cells (MM.1S) expressing TfR1 were incubated with either IgE isotype control (non-targeting control) or anti-TfR1 IgE. The rat basophilic leukemia cells RBL SX-38 expressing human FcεRI were incubated with either IgE isotype control or anti-TfR1 IgE. Antibody binding was detected using a PE-conjugated mouse IgG1 anti-human IgE antibody. Grey filled histograms represent cells incubated with secondary antibody only (“no antibody”). Empty black line histograms represent cells incubated with primary antibodies (IgE isotype control or anti-TfR1 IgE).
as §1

Row | binding result (human CD138) | binding result (human FcεRI) | binding result [1] | Binder
1 | binds | binds |  | anti-CD138 IgE (antibody, Mouse/human chimeric IgE; also called CD138-Targeted Antibody; anti-CD138 IgE antibody) heavy: QVQLQQSGSELMMPGASVKISCKATGYTFSNYWIEWVKQRPGHGLEWIGEILPGTGRTIYNEKFKGKATFTADISSNTVQMQLSSLTSEDSAVYYCARRDYYGNFYYAMDYWGQGTSVTVSSASTQSPSVFPLTRCCKNIPSNATSVTLGCLATGYFPEPVMVTWDTGSLNGTTMTLPATTLTLSGHYATISLLTVSGAWAKQMFTCRVAHTPSSTDWVDNKTFSVCSRDFTPPTVKILQSSCDGGGHFPPTIQLLCLVSGYTPGTINITWLEDGQVMDVDLSTASTTQEGELASTQSELTLSQKHWLSDRTYTCQVTYQGHTFEDSTKKCADSNPRGVSAYLSRPSPFDLFIRKSPTITCLVVDLAPSKGTVNLTWSRASGKPVNHSTRKEEKQRNGTLTVTSTLPVGTRDWIEGETYQCRVTHPHLPRALMRSTTKTSGPRAAPEVYAFATPEWPGSRDKRTLACLIQNFMPEDISVQWLHNEVQLPDARHSTTQPRKTKGSGFFVFSRLEVTRAEWEQKDEFICRAVHEAASPSQTVQRAVSVNPGK light: DIQMTQSTSSLSASLGDRVTISCSASQGINNYLNWYQQKPDGTVELLIYYTSTLQSGVPSRFSGSGSGTDYSLTISNLEPEDIGTYYCQQYSKLPRTFGGGTKLEIKRTVAAPSVFIFPPSDEQLKSGTASVVCLLNNFYPREAKVQWKVDNALQSGNSQESVTEQDSKDSTYSLSSTLTLSKADYEKHKVYACEVTHQGLSSPVTKSFNRGEC
2 |  | binds | binds | anti-TfR1 IgE (antibody, Mouse/human chimeric IgE; also called TfR1-Targeted Antibody; anti-TfR1 IgE antibody) heavy: EVQLQQSGPELVKPGASMKISCKASGYSFTGYTMNWVKQSHGENLEWIGRINPHNGGTDYNQKFKDKAPLTVDKSSNTAYMELLSLTSGDSAVYYCARGYYYYSLDYWGQGTSVTVSSASTQSPSVFPLTRCCKNIPSNATSVTLGCLATGYFPEPVMVTWDTGSLNGTTMTLPATTLTLSGHYATISLLTVSGAWAKQMFTCRVAHTPSSTDWVDNKTFSVCSRDFTPPTVKILQSSCDGGGHFPPTIQLLCLVSGYTPGTINITWLEDGQVMDVDLSTASTTQEGELASTQSELTLSQKHWLSDRTYTCQVTYQGHTFEDSTKKCADSNPRGVSAYLSRPSPFDLFIRKSPTITCLVVDLAPSKGTVNLTWSRASGKPVNHSTRKEEKQRNGTLTVTSTLPVGTRDWIEGETYQCRVTHPHLPRALMRSTTKTSGPRAAPEVYAFATPEWPGSRDKRTLACLIQNFMPEDISVQWLHNEVQLPDARHSTTQPRKTKGSGFFVFSRLEVTRAEWEQKDEFICRAVHEAASPSQTVQRAVSVNPGK light: QIVLTQSPAIMSVSPGEKVTMTCSASSSIRYIHWYQQRPGTSPKRWIYDTSNLASGVPARFSGSGSGTSYSLTISSMEAEDAATYYCHQRNSYPWTFGGGTRLEIRRTVAAPSVFIFPPSDEQLKSGTASVVCLLNNFYPREAKVQWKVDNALQSGNSQESVTEQDSKDSTYSLSSTLTLSKADYEKHKVYACEVTHQGLSSPVTKSFNRGEC
